Assay results published in US20250115669A1, “FGFR1/KLB Targeting Agonistic Antigen-Binding Proteins and Conjugates Thereof with GLP-1R Agonistic Peptides” (SANOFI, priority 2020, published 2025).

B1: Ab0330: IgG4 PE; 16H7 VL (N25S, D49S, D50E, D91A, N93E); 16H7 VH (M34V, I83T, D109E) (antibody)
VH: QVTLKESGPVLVKPTETLTLTCTVSGFSLNNARVGVSWIRQPPGKALEWLAHIFSNDEKSYSTSLKSRLTISKDTSKSQVVLTMTNMDPVDTATYYCARSVVTGGYYYEGMDVWGQGTTVTVSS
light: SYVLTQPPSVSVAPGQTARITCGGSNIGSESVHWYQQKPGQAPVLVVYSESDRPSGIPERFSGSNSGNTATLTISRVEAGDEADYYCQVWAGESDHVVFGGGTKLTVLGQPKANPTVTLFPPSSEELQANKATLVCLISDFYPGAVTVAWKADGSPVKAGVETTKPSKQSNNKYAASSYLSLTPEQWKSHRSYSCQVTHEGSTVEKTVAPTECS
B2: Ab0332: IgG4 PE; 16H7 VL (N25S, D49S, D50E, D91E, N93A); 16H7 VH (M34V, I83T, D109E) (antibody)
VH: QVTLKESGPVLVKPTETLTLTCTVSGFSLNNARVGVSWIRQPPGKALEWLAHIFSNDEKSYSTSLKSRLTISKDTSKSQVVLTMTNMDPVDTATYYCARSVVTGGYYYEGMDVWGQGTTVTVSS
light: SYVLTQPPSVSVAPGQTARITCGGSNIGSESVHWYQQKPGQAPVLVVYSESDRPSGIPERFSGSNSGNTATLTISRVEAGDEADYYCQVWEGASDHVVFGGGTKLTVLGQPKANPTVTLFPPSSEELQANKATLVCLISDFYPGAVTVAWKADGSPVKAGVETTKPSKQSNNKYAASSYLSLTPEQWKSHRSYSCQVTHEGSTVEKTVAPTECS
B3: Ab0334: IgG4 PE; 16H7 VL (N25S, D49S, D50A, D91A, N93S); 16H7 VH (M34V, I83T, D109E) (antibody)
VH: QVTLKESGPVLVKPTETLTLTCTVSGFSLNNARVGVSWIRQPPGKALEWLAHIFSNDEKSYSTSLKSRLTISKDTSKSQVVLTMTNMDPVDTATYYCARSVVTGGYYYEGMDVWGQGTTVTVSS
light: SYVLTQPPSVSVAPGQTARITCGGSNIGSESVHWYQQKPGQAPVLVVYSASDRPSGIPERFSGSNSGNTATLTISRVEAGDEADYYCQVWAGSSDHVVFGGGTKLTVLGQPKANPTVTLFPPSSEELQANKATLVCLISDFYPGAVTVAWKADGSPVKAGVETTKPSKQSNNKYAASSYLSLTPEQWKSHRSYSCQVTHEGSTVEKTVAPTECS
B4: Ab0341: IgG4 PE; 16H7 VL (N25S, D49A, D50Y, D91A, N93S); 16H7 VH (M34V, I83T, D109E) (antibody)
VH: QVTLKESGPVLVKPTETLTLTCTVSGFSLNNARVGVSWIRQPPGKALEWLAHIFSNDEKSYSTSLKSRLTISKDTSKSQVVLTMTNMDPVDTATYYCARSVVTGGYYYEGMDVWGQGTTVTVSS
light: SYVLTQPPSVSVAPGQTARITCGGSNIGSESVHWYQQKPGQAPVLVVYAYSDRPSGIPERFSGSNSGNTATLTISRVEAGDEADYYCQVWAGSSDHVVFGGGTKLTVLGQPKANPTVTLFPPSSEELQANKATLVCLISDFYPGAVTVAWKADGSPVKAGVETTKPSKQSNNKYAASSYLSLTPEQWKSHRSYSCQVTHEGSTVEKTVAPTECS
B5: Ab0338: IgG4 PE; 16H7 VL (N25S, D49S, D50S, D91A, N93S); 16H7 VH (M34V, I83T, D109E) (antibody)
VH: QVTLKESGPVLVKPTETLTLTCTVSGFSLNNARVGVSWIRQPPGKALEWLAHIFSNDEKSYSTSLKSRLTISKDTSKSQVVLTMTNMDPVDTATYYCARSVVTGGYYYEGMDVWGQGTTVTVSS
light: SYVLTQPPSVSVAPGQTARITCGGSNIGSESVHWYQQKPGQAPVLVVYSSSDRPSGIPERFSGSNSGNTATLTISRVEAGDEADYYCQVWAGSSDHVVFGGGTKLTVLGQPKANPTVTLFPPSSEELQANKATLVCLISDFYPGAVTVAWKADGSPVKAGVETTKPSKQSNNKYAASSYLSLTPEQWKSHRSYSCQVTHEGSTVEKTVAPTECS
B6: Ab0340: IgG4 PE; 16H7 VL (N25S, D49A, D50E, D91E, N93S); 16H7 VH (M34V, I83T, D109E) (antibody)
VH: QVTLKESGPVLVKPTETLTLTCTVSGFSLNNARVGVSWIRQPPGKALEWLAHIFSNDEKSYSTSLKSRLTISKDTSKSQVVLTMTNMDPVDTATYYCARSVVTGGYYYEGMDVWGQGTTVTVSS
light: SYVLTQPPSVSVAPGQTARITCGGSNIGSESVHWYQQKPGQAPVLVVYAESDRPSGIPERFSGSNSGNTATLTISRVEAGDEADYYCQVWEGSSDHVVFGGGTKLTVLGQPKANPTVTLFPPSSEELQANKATLVCLISDFYPGAVTVAWKADGSPVKAGVETTKPSKQSNNKYAASSYLSLTPEQWKSHRSYSCQVTHEGSTVEKTVAPTECS
B7: Ab0337: IgG4 PE; 16H7 VL (N25S, D49S, D50H, D91E, N93E); 16H7 VH (M34V, I83T, D109E) (antibody)
VH: QVTLKESGPVLVKPTETLTLTCTVSGFSLNNARVGVSWIRQPPGKALEWLAHIFSNDEKSYSTSLKSRLTISKDTSKSQVVLTMTNMDPVDTATYYCARSVVTGGYYYEGMDVWGQGTTVTVSS
light: SYVLTQPPSVSVAPGQTARITCGGSNIGSESVHWYQQKPGQAPVLVVYSHSDRPSGIPERFSGSNSGNTATLTISRVEAGDEADYYCQVWEGESDHVVFGGGTKLTVLGQPKANPTVTLFPPSSEELQANKATLVCLISDFYPGAVTVAWKADGSPVKAGVETTKPSKQSNNKYAASSYLSLTPEQWKSHRSYSCQVTHEGSTVEKTVAPTECS
B8: Ab0333: IgG4 PE; 16H7 VL (N25S, D49S, D50Y, D91A, N93S); 16H7 VH (M34V, I83T, D109E) (antibody)
VH: QVTLKESGPVLVKPTETLTLTCTVSGFSLNNARVGVSWIRQPPGKALEWLAHIFSNDEKSYSTSLKSRLTISKDTSKSQVVLTMTNMDPVDTATYYCARSVVTGGYYYEGMDVWGQGTTVTVSS
light: SYVLTQPPSVSVAPGQTARITCGGSNIGSESVHWYQQKPGQAPVLVVYSYSDRPSGIPERFSGSNSGNTATLTISRVEAGDEADYYCQVWAGSSDHVVFGGGTKLTVLGQPKANPTVTLFPPSSEELQANKATLVCLISDFYPGAVTVAWKADGSPVKAGVETTKPSKQSNNKYAASSYLSLTPEQWKSHRSYSCQVTHEGSTVEKTVAPTECS
B9: Ab0339: IgG4 PE; 16H7 VL (N25S, D49A, D50E, D91A, N93S); 16H7 VH (M34V, I83T, D109E) (antibody)
VH: QVTLKESGPVLVKPTETLTLTCTVSGFSLNNARVGVSWIRQPPGKALEWLAHIFSNDEKSYSTSLKSRLTISKDTSKSQVVLTMTNMDPVDTATYYCARSVVTGGYYYEGMDVWGQGTTVTVSS
light: SYVLTQPPSVSVAPGQTARITCGGSNIGSESVHWYQQKPGQAPVLVVYAESDRPSGIPERFSGSNSGNTATLTISRVEAGDEADYYCQVWAGSSDHVVFGGGTKLTVLGQPKANPTVTLFPPSSEELQANKATLVCLISDFYPGAVTVAWKADGSPVKAGVETTKPSKQSNNKYAASSYLSLTPEQWKSHRSYSCQVTHEGSTVEKTVAPTECS
B10: Ab0342: IgG4 PE; 16H7 VL (N25S, D49A, D50A, D91A, N93E); 16H7 VH (M34V, I83T, D109E) (antibody)
VH: QVTLKESGPVLVKPTETLTLTCTVSGFSLNNARVGVSWIRQPPGKALEWLAHIFSNDEKSYSTSLKSRLTISKDTSKSQVVLTMTNMDPVDTATYYCARSVVTGGYYYEGMDVWGQGTTVTVSS
light: SYVLTQPPSVSVAPGQTARITCGGSNIGSESVHWYQQKPGQAPVLVVYAASDRPSGIPERFSGSNSGNTATLTISRVEAGDEADYYCQVWAGESDHVVFGGGTKLTVLGQPKANPTVTLFPPSSEELQANKATLVCLISDFYPGAVTVAWKADGSPVKAGVETTKPSKQSNNKYAASSYLSLTPEQWKSHRSYSCQVTHEGSTVEKTVAPTECS
B11: Ab0336: IgG4 PE; 16H7 VL (N25S, D49S, D50H, D91A, N93S); 16H7 VH (M34V, I83T, D109E) (antibody)
VH: QVTLKESGPVLVKPTETLTLTCTVSGFSLNNARVGVSWIRQPPGKALEWLAHIFSNDEKSYSTSLKSRLTISKDTSKSQVVLTMTNMDPVDTATYYCARSVVTGGYYYEGMDVWGQGTTVTVSS
light: SYVLTQPPSVSVAPGQTARITCGGSNIGSESVHWYQQKPGQAPVLVVYSHSDRPSGIPERFSGSNSGNTATLTISRVEAGDEADYYCQVWAGSSDHVVFGGGTKLTVLGQPKANPTVTLFPPSSEELQANKATLVCLISDFYPGAVTVAWKADGSPVKAGVETTKPSKQSNNKYAASSYLSLTPEQWKSHRSYSCQVTHEGSTVEKTVAPTECS

Molecular target: T1, human beta-Klotho (Homo sapiens, UniProt Q86Z14)
T1 sequence (Q86Z14 1-1044): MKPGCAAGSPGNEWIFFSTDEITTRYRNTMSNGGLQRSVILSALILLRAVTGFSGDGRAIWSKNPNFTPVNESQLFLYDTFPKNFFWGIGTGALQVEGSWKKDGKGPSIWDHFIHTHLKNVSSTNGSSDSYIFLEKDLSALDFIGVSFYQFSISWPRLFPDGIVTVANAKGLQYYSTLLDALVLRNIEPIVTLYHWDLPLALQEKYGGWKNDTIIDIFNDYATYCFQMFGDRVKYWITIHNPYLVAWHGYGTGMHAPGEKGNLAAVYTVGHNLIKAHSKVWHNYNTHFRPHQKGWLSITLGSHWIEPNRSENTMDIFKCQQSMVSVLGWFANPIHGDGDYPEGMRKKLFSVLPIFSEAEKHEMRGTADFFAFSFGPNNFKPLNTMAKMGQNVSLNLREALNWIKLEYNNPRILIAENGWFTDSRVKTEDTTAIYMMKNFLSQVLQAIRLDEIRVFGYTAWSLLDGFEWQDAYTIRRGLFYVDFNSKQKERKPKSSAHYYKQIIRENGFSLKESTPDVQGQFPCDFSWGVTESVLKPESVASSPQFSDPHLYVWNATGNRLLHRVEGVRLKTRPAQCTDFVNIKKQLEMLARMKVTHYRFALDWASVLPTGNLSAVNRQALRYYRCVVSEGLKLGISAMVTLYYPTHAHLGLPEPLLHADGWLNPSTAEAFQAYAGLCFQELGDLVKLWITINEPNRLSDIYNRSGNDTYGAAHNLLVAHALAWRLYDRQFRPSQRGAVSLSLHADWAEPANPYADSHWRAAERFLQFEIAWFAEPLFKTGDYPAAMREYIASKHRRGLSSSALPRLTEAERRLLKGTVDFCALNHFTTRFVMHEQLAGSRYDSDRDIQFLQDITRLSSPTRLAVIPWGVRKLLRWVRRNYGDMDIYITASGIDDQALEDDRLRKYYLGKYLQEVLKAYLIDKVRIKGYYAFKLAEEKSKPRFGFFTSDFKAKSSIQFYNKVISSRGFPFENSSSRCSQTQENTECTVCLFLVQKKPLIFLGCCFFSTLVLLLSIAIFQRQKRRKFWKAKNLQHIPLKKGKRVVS
Experiment: SPR off-rate screening of antibody mutants (human beta-Klotho captured by anti-His antibody)
Assay type: binding
Details: mean, n=3
Method in brief: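 His-tagged beta-Klotho was captured via an anti-His antibody amine-coupled to a CM5 chip, and antibody mutants were injected as analytes at 50 nmol/L. Association ran 240 sec, dissociation 300 sec; off-rates (kd) came from single exponential fitting.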

Molecule	koff human KLB
B1	invalid fit
B2	0.00143 s⁻¹
B3	invalid fit
B4	invalid fit
B5	0.0004292 s⁻¹
B6	0.00176 s⁻¹
B7	0.0005296 s⁻¹
B8	0.0002507 s⁻¹
B9	invalid fit
B10	invalid fit
B11	invalid fit
